{"source": "paper PMC12139779", "about": "(bioRxiv, 2025)", "molecular_target": "T1, Human KLHDC2 (kelch domain, amino acids 1–362) (human, UniProt Q9Y2U9 1-362, biotin (biotinylated with BirA enzyme))", "T1 sequence": "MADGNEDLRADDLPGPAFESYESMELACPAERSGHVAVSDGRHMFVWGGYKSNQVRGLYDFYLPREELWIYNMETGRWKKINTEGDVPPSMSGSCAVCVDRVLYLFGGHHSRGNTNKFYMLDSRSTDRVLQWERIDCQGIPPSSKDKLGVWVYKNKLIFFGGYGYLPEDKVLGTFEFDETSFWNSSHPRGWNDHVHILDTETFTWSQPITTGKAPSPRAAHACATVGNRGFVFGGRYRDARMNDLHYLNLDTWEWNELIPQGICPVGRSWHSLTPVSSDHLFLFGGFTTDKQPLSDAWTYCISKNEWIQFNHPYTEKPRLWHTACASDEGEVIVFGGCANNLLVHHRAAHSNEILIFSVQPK", "assay": "fluorescence polarisation", "data": [{"binder": "SPPPMAGG", "note": "[SelK 8-mer (SPPPMAGG)]", "values": [{"measurement": "binding result", "value": "binds"}]}]}
